Experimental data from PMC4996508.

Biological target: Neurospora crassa importin-α (residues 75-529) (Neurospora crassa)
Assay: ITC; importin-α (50 μM) in the cell, PAC-3 NLS peptide (500 μM) titrated from the syringe; 20°C; 20 mM Tris-HCl pH 8.0, 100 mM NaCl; single binding site model

Sequence of PAC-3 NLS peptide (peptide): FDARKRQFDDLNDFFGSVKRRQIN
Sequence of Neurospora crassa importin-α (residues 75-529) (Neurospora crassa) (G5EB89 other isoform, or with tags, fused parts or gaps): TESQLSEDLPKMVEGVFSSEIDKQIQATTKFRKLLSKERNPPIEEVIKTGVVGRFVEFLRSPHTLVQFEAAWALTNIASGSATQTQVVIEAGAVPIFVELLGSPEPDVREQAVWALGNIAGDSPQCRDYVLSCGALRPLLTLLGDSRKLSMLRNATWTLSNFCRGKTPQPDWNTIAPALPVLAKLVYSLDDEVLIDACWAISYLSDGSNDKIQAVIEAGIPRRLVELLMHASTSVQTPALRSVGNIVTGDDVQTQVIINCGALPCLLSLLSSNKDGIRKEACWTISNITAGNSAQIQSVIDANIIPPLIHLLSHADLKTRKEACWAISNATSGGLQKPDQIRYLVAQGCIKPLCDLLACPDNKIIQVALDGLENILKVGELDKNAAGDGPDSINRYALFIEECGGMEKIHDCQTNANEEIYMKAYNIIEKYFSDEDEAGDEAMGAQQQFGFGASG

- Kd: 390 nM
- dH: -12.1 kcal/mol
- stoichiometry N: 1
Substance: PAC-3 NLS peptide
